{"source": "patent US20230212319A1", "about": "“NOVEL ANTIGEN BINDING DOMAINS AND SYNTHETIC ANTIGEN RECEPTORS INCORPORATING THE SAME” (University of Southern California, priority 2020, published 2023)", "molecules": {"B1": {"name": "CD8SP-Dsg3-EC1-EC2-L693-IgCL-TCRb-wt2-opt-6MD-F-P2A-IgHSP-CD20-vHH2-HCD25-G4S-CD19-hu-mROO5-1-vH-IgG1-CH1-TCRa-wt2-opt-6MD-F-F2A-PAC (protein)", "chain": "MALPVTALLLPLALLLHAARPACEWVKFAKPCREGEDNSKRNPIAKITSDYQATQKITYRISGVGIDQPPFGIFVVDKNTGDINITAIVDREETPSFLITCRALNAQGLDVEKPLILTVKILDINDNPPVFSQQIFMGEIEENSASNSLVMILNATDADEPNHLNSKIAFKIVSQEPAGTPMFLLSRNTGEVRTLTNSLDREQASSYRLVVSGADKDGEGLSTQCECNIKVKDVNDNFPMFRDSLEGQPKANPTVTLFPPSSEELQANKATLVCLISDFYPGAVTVAWKADGSPVKAGVETTKPSKQSNNKYAASSYLSLTPEQWKSHRSYSCQVTHEGSTVEKTVAPTECSGRADCGFTSESYQQGVLSATILYEILLGKATLYAVLVSALVLMAMVKRKDSRGRAKRSGSGATNFSLLKQAGDVEENPGPTSATMDWIWRILFLVGAATGAHSGPQVQLQESGGGLAQAGGSLRLSCAASGRTFSMGWFRQAPGKEREFVAAITYSGGSPYYASSVRGRFTISRDNAKNTVYLQMNSLKPEDTAVYYCAANPTYGSDWNAENWGQGTQVTVSSGSGGGGSGGGGSGGGGSFEQVQLQQPGAELVKPGASVKMSCKASGYAFSSYWINWMKQKPGQGLEWIGQIYPGDGDTNYNGKFKGRATLTADTSSSTAYMQLSSLTSEDSAVYFCARSITTVVGCAMDYWGQGTSVTVSSTRASTKGPSVFPLAPSSKSTSGGTAALGCLVKDYFPEPVTVSWNSGALTSGVHTFPAVLQSSGLYSLSSVVTVPSSSLGTQTYICNVNHKPSNTKVDKRVEPKSCIPEDTFFPSPESSCDVKLVEKSFETDTNLNFQNLSVIGFRILLLKVAGFNLLMTLRLWSSRAKRSGSGVKQTLNFDLLKLAGDVESNPGPSRGHMTEYKPTVRLATRDDVPRAVRTLAAAFADYPATRHTVDPDRHIERVTELQELFLTRVGLDIGKVWVADDGAAVAVWTTPESVEAGAVFAEIGPRMAELSGSRLAAQQQMEGLLAPHRPKEPAWFLATVGVSPDHQGKGLGSAVVLPGVEAAERAGVPAFLETSAPRNLPFYERLGFTVTADVEVPEGPRTWCMTRKPGA"}, "B2": {"name": "6821 (protein)", "chain": "MALPVTALLLPLALLLHAARPQLQLQESGPGLVKPSETLSLTCTVSGDSISSGDYYWGWIRQPPGKGLEWIGHIYYSGVTYYNPSLKSRVTISVDTSRNQFSLKLSSVTAADTAVYYCTREDSSNWRSRGQGTLVTVSSLEGQPKANPTVTLFPPSSEELQANKATLVCLISDFYPGAVTVAWKADGSPVKAGVETTKPSKQSNNKYAASSYLSLTPEQWKSHRSYSCQVTHEGSTVEKTVAPTECSPIKTDVITMDPKDNCSKDANDTLLLQLTNTSAYYMYLLLLLKSVVYFAIITCCLLRRTAFCCNGEKSRAKRSGSGATNFSLLKQAGDVEENPGPTSMDWIWRILFLVGAATGAHSFEVQLLESGGGLIQPGGSLRLSCAASGFTFSSHAMTWVRQAPGKGLEWVSAISGSGDYTHYADSVKGRFTISRDNSKNTVYLQMNSLRAEDSAVYYCAKDEDGGSLLGHRGQGTLVTVSSTRASTKGPSVFPLAPSSKSTSGGTAALGCLVKDYFPEPVTVSWNSGALTSGVHTFPAVLQSSGLYSLSSVVTVPSSSLGTQTYICNVNHKPSNTKVDKRVEPKSCEVKTDSTDHVKPKETENTKQPSKSCHKPKAIVHTEKVNMMSLTVLGLRMLFAKTVAVNFLLTAKLFFLRAKRSGSGVKQTLNFDLLKLAGDVESNPGPSRGHMTEYKPTVRLATRDDVPRAVRTLAAAFADYPATRHTVDPDRHIERVTELQELFLTRVGLDIGKVWVADDGAAVAVWTTPESVEAGAVFAEIGPRMAELSGSRLAAQQQMEGLLAPHRPKEPAWFLATVGVSPDHQGKGLGSAVVLPGVEAAERAGVPAFLETSAPRNLPFYERLGFTVTADVEVPEGPRTWCMTRKPGA", "modifications": "Synthetic Polynucloetide"}, "B3": {"name": "SEQ ID NO: 23330: targeting construct coexpressing a TCRα constant chain with a SAR on TFP backbone targeting BCMA and CD22, directed to the TRAC locus (protein)", "chain": "FKIPIEELEDRVFVNCNTSITWVEGTVGTLLSDITRLDLGKRILDPRGIYRCNGTDIYKDKESTVQVHYRMCQSCVELDPATVA"}}, "key": {"[1]": {"tested_on": "Raji cells expressing a membrane anchored scFv targeting Dsg3", "test": "JNG assay, co-culture with Raji cells expressing a membrane anchored scFv targeting Dsg3", "assay_type": "cell-based", "details": "compared to parental Raji cells", "procedure": "Cellular supernatant is collected and assayed for the induction of cytokines (e.g., IL2).\nJNG (Jurkat cells expressing EGFP under an NFAT promoter) were infected with lentiviral vectors encoding different single chain and multi-chain SARs by spinfection in the presence of 8 µg/ml of Polybrene® (Sigma, Catalog no. H9268). The Jurkat-NFAT-GFP cells are engineered in such a way that the IL-2 promoter, which carries NFAT binding sites, is cloned upstream of the GFP gene. These cells have been used to study signaling via TCR and CAR. The different SARs were stably expressed in Jurkat NFAT-GFP cells by lentiviral mediated gene transfer, followed by selection with puromycin or blasticidin. No drug selection was used in case the construct lacked an antibiotic resistance gene. […] GFP expression was monitored by FACS analysis. […] The structure of different constructs can be determined based on their names. […] The sequence of the other constructs in the table can be similarly determined from their names and by referring to the different Tables of this disclosure that provide the names and SEQ ID NO of the different modules. Alternatively, the composition and modular architecture of the different SAR constructs can be determined from their sequences by bioinformatics tools, including using nucleic acid and amino acids homology searches. […]"}, "[2]": {"tested_on": "L363 (BCMA+) cells", "assay_type": "cell-based"}, "[3]": {"tested_on": "RAJI cells", "test": "JNG (Jurkat NFAT-GFP) cells expressing SAR: GFP induction on co-culture with RAJI"}, "[4]": {"tested_on": "target cell lines expressing a non-secretory form of a luciferase", "test": "Assay for cytotoxic activity (Matador assay, luciferase release)", "assay_type": "cell-based", "details": "TRAC-targeted T cells, versus construct SEQ ID NO: 23329", "procedure": "Cell lines engineered to express luciferases (e.g., GLuc or NLuc) for measuring cytotoxicity of different constructs targeting different cell surface and intracellular antigens are provided in Table C-1. Cells were cultured at 37° C., in a 5% CO2 humidified incubator. The cell lines were obtained from ATCC, NIH AIDS reagent program or were available in the laboratory.\nThe generation of Chimeric antigen receptor (e.g., 2nd generation CARs, SIRs, Ab-TCR and TFP etc.), the generation and use of GGS-NLuc fusion proteins (Topanga and Malibu-Glo assays), and the generation and use of luciferase (e.g., GLuc) reporter cell lines for measurement of cellular cytotoxicity using the Matador assays have been described (PCT/US2017/024843, PCT/US2017/025602, PCT/US2017/052344, PCT/US2017/064379 and PCT/US2018/53247).\n(C) Assay for Cytotoxic Activity in vitro and in vivo: The uninfected T cells or those expressing a control vector or SAR are cocultured with the target cell lines expressing a non-secretory form of a luciferase (such as GLuc, NLuc, Turboluc 16 etc.) for 4-96 hours and induction of cell lysis examined by measuring the luciferase activity as described in PCT/US17/52344."}, "[5]": {"tested_on": "target cells", "test": "Xenograft model in immunodeficient mice", "assay_type": "in vivo", "details": "TRAC-targeted T cells, versus construct SEQ ID NO: 23329", "description": "Animal models can also be used to measure SAR activity. For example, xenograft model using human cancer associated antigen described herein-specific SAR^+ T cells to treat a primary human pre-B-ALL in immunodeficient mice can be used. Dose dependent SAR treatment response can be evaluated. See, e.g., Milone et al., Molecular Therapy 17(S): 1453-1464 (2009). Assessment of cell proliferation and cytokine production has been previously described, e.g., at Milone et al., Molecular Therapy 17(S): 1453-1464 (2009). Cytotoxicity can be assessed by a standard ^51Cr-release assay or Matador assay. Imaging technologies can be used to evaluate specific trafficking and proliferation of SIRs in tumor-bearing animal models.\nThe cells expressing the SAR constructs are exposed to RAJI and L363 target cells and tested in functional assays as described above. […] It is also observed that co-expression of the constant chains of both TCRγ and TCRδ can also rescue the expresson of SARs on TFP backbone in αβ T cells in which the expression of endogeneous TCRα and/or TCRβ constant chains has been eliminated by insertion of the SAR expresson cassette at the endogenous TRAC or/and TRBC loci. Exemplary constructs to express TCRγ and TCRδ chains are provided in SEQ ID NO: 23333 and 23334, respectively."}}, "data": [{"molecule": "B1", "values": [{"measurement": "GFP induction", "setting": "[1]", "result": "increased GFP induction"}]}, {"molecule": "B2", "values": [{"measurement": "GFP expression on co-culture with L363 (BCMA+)", "setting": "[2]", "result": "strongly induced GFP expression"}, {"measurement": "GFP expression on co-culture with RAJI", "setting": "[3]", "result": "strongly induced GFP expression"}]}, {"molecule": "B3", "values": [{"measurement": "cytotoxicity", "setting": "[4]", "result": "greater"}, {"measurement": "in vivo anti-tumor activity against the target cells", "setting": "[5]", "result": "greater"}]}]}
